# In the supplement of paper PMC9112550, “Optimization of the antimicrobial peptide Bac7 by deep mutational scanning” (BMC Biology, 2022):
# Tested on: Escherichia coli TOP10
# Assay: shrunken log2 fold change of peptide-encoding DNA abundance (4.5 h post-induction vs induction); higher = less antimicrobial activity (less host growth inhibition)
# Settings: time post-induction: 4.5 h; library: site-saturation at positions 5, 18, 19, 20
# 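Also: peptides expressed intracellularly from a pBAD plasmid library in pooled LB shake-flask culture, induced with 0.3% L-arabinose, DNA abundance read by NGS, three biological replicates, DESeq2 with apeglm shrinkage.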
row,Sequence,shrunken log2 fold change
1,RRIRARPPRLPRPRPRPSTTPRP,0.363
2,RRIRARPPRLPRPRPRPKVGPRP,0.284
3,RRIRKRPPRLPRPRPRPGGAPRP,0.729
4,RRIRYRPPRLPRPRPRPHCRPRP,-0.372
5,RRIRWRPPRLPRPRPRPVGMPRP,0.456
6,RRIRQRPPRLPRPRPRPWGSPRP,-0.0209
7,RRIRDRPPRLPRPRPRPKHRPRP,0.114
8,RRIRRRPPRLPRPRPRPKKLPRP,0.166
9,RRIRQRPPRLPRPRPRPKCWPRP,0.621
10,RRIRRRPPRLPRPRPRPVTLPRP,0.0854
11,RRIRYRPPRLPRPRPRPYSRPRP,-0.01
12,RRIRPRPPRLPRPRPRPGFVPRP,0.143
13,RRIRWRPPRLPRPRPRPMISPRP,0.248
14,RRIRFRPPRLPRPRPRPLWSPRP,0.655
15,RRIRPRPPRLPRPRPRPFYRPRP,0.0278
16,RRIRPRPPRLPRPRPRPEYFPRP,-0.185
17,RRIRQRPPRLPRPRPRPVIDPRP,-0.016
18,RRIRYRPPRLPRPRPRPQCSPRP,-0.73
19,RRIRGRPPRLPRPRPRPKYDPRP,1.62
20,RRIRDRPPRLPRPRPRPETHPRP,0.739
21,RRIRMRPPRLPRPRPRPHSSPRP,0.0203
22,RRIRGRPPRLPRPRPRPSRTPRP,0.536
23,RRIRMRPPRLPRPRPRPLTAPRP,1.15
24,RRIRIRPPRLPRPRPRPQWQPRP,-0.182
25,RRIRRRPPRLPRPRPRPASLPRP,0.338

row,Sequence,shrunken log2 fold change
1,RRIRMRPPRLPRPRPRPQCCPRP,0.00357
2,RRIRTRPPRLPRPRPRPDLRPRP,-0.0122
3,RRIRQRPPRLPRPRPRPWYIPRP,-0.0906
4,RRIRRRPPRLPRPRPRPGKHPRP,-0.0322
5,RRIRYRPPRLPRPRPRPCGLPRP,-0.107
6,RRIRTRPPRLPRPRPRPPQFPRP,0.11
7,RRIRSRPPRLPRPRPRPGAKPRP,0.513
8,RRIRYRPPRLPRPRPRPRWFPRP,-0.0532
9,RRIRERPPRLPRPRPRPQTPPRP,0.0694
10,RRIRHRPPRLPRPRPRPIEMPRP,-0.00281
11,RRIRFRPPRLPRPRPRPLGGPRP,-0.235
12,RRIRMRPPRLPRPRPRPGKFPRP,0.0419
13,RRIRQRPPRLPRPRPRPPPNPRP,0.508
14,RRIRGRPPRLPRPRPRPIFDPRP,0.378
15,RRIRFRPPRLPRPRPRPLIFPRP,-0.666
16,RRIRPRPPRLPRPRPRPPIQPRP,0.00728
17,RRIRKRPPRLPRPRPRPDNAPRP,0.05
18,RRIRQRPPRLPRPRPRPLTDPRP,0.132
19,RRIRPRPPRLPRPRPRPTFIPRP,-0.243
20,RRIRYRPPRLPRPRPRPKKVPRP,-0.141
21,RRIRDRPPRLPRPRPRPRGNPRP,0.088
22,RRIRARPPRLPRPRPRPHWFPRP,0.0804
23,RRIRHRPPRLPRPRPRPQMNPRP,-0.312
24,RRIRIRPPRLPRPRPRPFNWPRP,-0.155
25,RRIRERPPRLPRPRPRPDLSPRP,-0.349

row,Sequence,shrunken log2 fold change
1,RRIRSRPPRLPRPRPRPIYCPRP,-0.876
2,RRIRLRPPRLPRPRPRPCHIPRP,-0.113
3,RRIRVRPPRLPRPRPRPFKEPRP,0.121
4,RRIRPRPPRLPRPRPRPMCLPRP,-0.0489
5,RRIRERPPRLPRPRPRPSIMPRP,-1.02
6,RRIRARPPRLPRPRPRPICLPRP,0.425
7,RRIRVRPPRLPRPRPRPPAHPRP,0.231
8,RRIRKRPPRLPRPRPRPILAPRP,0.0492
9,RRIRPRPPRLPRPRPRPVCPPRP,0.0159
10,RRIRGRPPRLPRPRPRPKAQPRP,1.27
11,RRIRCRPPRLPRPRPRPYHVPRP,-0.0591
12,RRIRKRPPRLPRPRPRPDGSPRP,0.132
13,RRIRNRPPRLPRPRPRPKRPPRP,0.589
14,RRIRQRPPRLPRPRPRPVTCPRP,0.0138
15,RRIRHRPPRLPRPRPRPRCAPRP,0.189
16,RRIRGRPPRLPRPRPRPNEKPRP,0.0813
17,RRIRDRPPRLPRPRPRPRWRPRP,0.605
18,RRIRRRPPRLPRPRPRPKWHPRP,0.593
19,RRIRKRPPRLPRPRPRPRHLPRP,0.218
20,RRIRVRPPRLPRPRPRPGNDPRP,-0.0387
21,RRIRGRPPRLPRPRPRPSWDPRP,0.496
22,RRIRNRPPRLPRPRPRPTFSPRP,-0.269
23,RRIRPRPPRLPRPRPRPPSTPRP,0.123
24,RRIRTRPPRLPRPRPRPDCTPRP,0.0818
25,RRIRERPPRLPRPRPRPLCIPRP,-0.895

row,Sequence,shrunken log2 fold change
1,RRIRWRPPRLPRPRPRPNCVPRP,0.0603
2,RRIRERPPRLPRPRPRPPMAPRP,0.149
3,RRIRPRPPRLPRPRPRPYDNPRP,-0.415
4,RRIRIRPPRLPRPRPRPSASPRP,0.0632
5,RRIRNRPPRLPRPRPRPYKPPRP,-0.0731
6,RRIRVRPPRLPRPRPRPNKNPRP,0.0192
7,RRIRFRPPRLPRPRPRPKAHPRP,-0.0835
8,RRIRERPPRLPRPRPRPLAEPRP,0.17
9,RRIRVRPPRLPRPRPRPHESPRP,0.22
10,RRIRARPPRLPRPRPRPENLPRP,0.0156
11,RRIRCRPPRLPRPRPRPNAKPRP,0.0347
12,RRIRHRPPRLPRPRPRPFDPPRP,-0.101
13,RRIRERPPRLPRPRPRPMCPPRP,-0.0308
14,RRIRKRPPRLPRPRPRPGYLPRP,-0.319
15,RRIRRRPPRLPRPRPRPSDDPRP,0.209
16,RRIRWRPPRLPRPRPRPSAAPRP,0.921
17,RRIRMRPPRLPRPRPRPIYDPRP,-0.265
18,RRIRNRPPRLPRPRPRPHCLPRP,-0.466
19,RRIRQRPPRLPRPRPRPHQNPRP,-0.246
20,RRIRERPPRLPRPRPRPTMVPRP,0.0432
21,RRIRGRPPRLPRPRPRPYTHPRP,-0.426
22,RRIRKRPPRLPRPRPRPDELPRP,2.45
23,RRIRQRPPRLPRPRPRPEIYPRP,-0.145
24,RRIRARPPRLPRPRPRPHQGPRP,-0.0611
25,RRIRDRPPRLPRPRPRPNYFPRP,-0.0536

row,Sequence,shrunken log2 fold change
1,RRIRTRPPRLPRPRPRPPYEPRP,0.0319
2,RRIRFRPPRLPRPRPRPQSAPRP,0.0283
3,RRIRSRPPRLPRPRPRPPSKPRP,0.0454
4,RRIRRRPPRLPRPRPRPDEEPRP,0.526
5,RRIRHRPPRLPRPRPRPWKGPRP,-0.0165
6,RRIRRRPPRLPRPRPRPNECPRP,0.0616
7,RRIRLRPPRLPRPRPRPWPIPRP,0.0461
8,RRIRERPPRLPRPRPRPRLYPRP,-0.448
9,RRIRERPPRLPRPRPRPTKKPRP,0.0853
10,RRIRSRPPRLPRPRPRPCMDPRP,-0.0717
11,RRIRGRPPRLPRPRPRPHWWPRP,0.66
12,RRIRMRPPRLPRPRPRPADHPRP,0.173
13,RRIRSRPPRLPRPRPRPMEIPRP,0.014
14,RRIRYRPPRLPRPRPRPLASPRP,-0.556
15,RRIRCRPPRLPRPRPRPECWPRP,0.669
16,RRIRWRPPRLPRPRPRPIEFPRP,-0.0119
17,RRIRKRPPRLPRPRPRPIDWPRP,0.29
18,RRIRLRPPRLPRPRPRPNHHPRP,-0.0905
19,RRIRYRPPRLPRPRPRPSICPRP,-0.0533
20,RRIRSRPPRLPRPRPRPNYLPRP,-0.071
21,RRIRPRPPRLPRPRPRPPLHPRP,0.21
22,RRIRTRPPRLPRPRPRPKCFPRP,-0.384
23,RRIRERPPRLPRPRPRPMRDPRP,0.365
24,RRIRSRPPRLPRPRPRPIQMPRP,-0.103
25,RRIRYRPPRLPRPRPRPCLSPRP,-1.24
